Results published in publication PMC5640227.

Columns and labels:
[1] = target: Human Respiratory Syncytial Virus Matrix (M) protein, GAL4 fusion (Human Respiratory Syncytial Virus) (UniProt P0DOE7); assay: two-hybrid
[2] = target: Adaptor protein complex 3 medium subunit (AP-3Mu3A), GAL4 fusion (human (HeLa cDNA library)) (UniProt Q9Y2T2); assay: two-hybrid
Sequence of UniProt Q9Y2T2 (Q9Y2T2 whole entry, the tested form may be a part, one chain of several): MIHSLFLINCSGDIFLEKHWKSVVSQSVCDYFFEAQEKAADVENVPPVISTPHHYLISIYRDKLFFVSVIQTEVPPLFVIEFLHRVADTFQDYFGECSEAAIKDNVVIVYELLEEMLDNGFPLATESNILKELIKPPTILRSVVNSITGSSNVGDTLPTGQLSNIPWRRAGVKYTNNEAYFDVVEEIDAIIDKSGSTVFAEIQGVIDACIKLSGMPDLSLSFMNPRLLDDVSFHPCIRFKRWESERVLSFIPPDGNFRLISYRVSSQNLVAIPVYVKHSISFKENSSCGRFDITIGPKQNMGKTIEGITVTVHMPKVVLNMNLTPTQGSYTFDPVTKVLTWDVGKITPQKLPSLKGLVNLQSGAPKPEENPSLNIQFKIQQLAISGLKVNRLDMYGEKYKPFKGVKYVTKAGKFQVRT

Molecule: Adaptor protein complex 3 medium subunit (AP-3Mu3A), GAL4 fusion (from UniProt Q9Y2T2 1-418) (natural protein)
- beta-Galactosidase activity [1]: 458 units

B1: Human Respiratory Syncytial Virus Matrix (M) protein, GAL4 fusion (natural protein)
chain: METYVNKLHEGSTYTAAVQYNVLEKDDDPASLTIWVPMFQSSMPADLLIKELANVNILVKQISTPKGPSLRVMINSRSAVLAQMPSKFTICANVSLDERSKLAYDVTTPCEIKACSLTCLKSKNMLTTVKDLTMKTLNPTHDIIALCEFENIVTSKKVIIPTYLRSISVRNKDLNTLENITTTEFKNAITNAKIIPYSGLLLVITVTDNKGAFKYIKPQSQFIVDLGAYLEKESIYYVTTNWKHTATRFAIKPMED
- beta-Galactosidase activity [2]: 420 units
